Measurements published in patent publication US20110239327A1, “Nematicidal Effects of Cysteine Proteinases and Methods of Use Thereof to Treat Nematode Infestation” (priority 2007, published 2011).

Assays:
[1] = tested on: M. incognita J2; test: In planta bioassay, two soil applications: nematode infection of tomato roots; assay type: in vivo, M. incognita on tomato plants; conditions: two soil applications of enzyme (250 μM papain, 2.2 μM bromelain, 3.3 mM actinidin as printed), soil 16% organic matter, 11 days
Method: Oxamyl is supplied as 10% liquid Vydate. 125 μl of a solution 1000 fold dilution of 10% formulation (kindly supplied by DK from NIU) was applied to 5 g of the soil mixture with 16% organic matter, to give a partial nematicidal effect. Soil mixtures were wetted with PBS pH 7.2, 16 hrs prior nematode application of 1000 or 2000 M. incognita J2. Infected soil mixtures were treated with water (control) or 250 μM of active papain in 16 mM of L-cysteine or a combination of Vydate and 250 μM of active papain in 16 mM of L-cysteine. After 48 hs tomato seedlings one month old were added to the treated soils. After 11 days the roots were washed free of soil and chopped to approximately 2 mm pieces. The root pieces of each tomato plant was placed in muslin bags and stained with acid-fuchsin. The stained roots were examined under microscope and all the nematodes present in the roots were counted. […] After 48 hours tomato seedlings one month old were added to the treated soils and after 11 days post infection nematode development inside root tissues was assessed as described above.
The avermectins are macrocyclic lactones produced by the actinomycete Streptomyces avermitilis. […] After 48 hs tomato seedlings one month old were added to the treated soils and after 11 days post infection nematode development inside root tissues was assessed as described above. […]

[2] = tested on: Heterorhabditis megidis; test: In vitro effect on the beneficial nematode Heterorhabditis megidis; assay type: cell-based
Method: (§1) Eggs of M. incognita race 1 from North Carolina State University, USA were collected from tomato-infected roots grown in a glasshouse at 23° C. in a 16:8 h light-dark regime. Eggs were extracted using 1% hypochlorite (NaClO) solution (Hussey and Barker, 1973) or by picking egg masses from tomato-infected roots. Juveniles (J2) were hatched from the eggs and egg masses in water. Heterodera glycines eggs were obtained from soil samples stored in Rothamsted-Research. Second stage juveniles (J2) were hatched from the eggs in water after 10 days. Pratylenchus penetrans were a gift from Dr. Deeren Anne-Marie from the Institute for Agricultural and Fisheries Research, Merelbeke, Belgium. The beneficial nematodes Steinernema feltiae and Heterorhabditis megidis were a gift from Dr. Paul Williams from Becker Underwood.
(§2) Control wells were set up which contained J2s and distilled water with 16 mM L-cysteine. Each enzyme concentration and the controls were set up in duplicate (i.e. n=2). The actual number of active J2s per well was counted with the aid of an Olympus inverted microscope, prior to the addition of the enzymes, and then the J2s were incubated in the dark at room temperature for 2 hs, 16 hs, 24 hs or 40 hr. The number of live and dead J2s per well was counted after each enzyme incubation. The same procedure was followed when setting up further experiments to compare the effects of these enzymes with Heterodera glycines J2, Pratylenchus penetrans, Steinernema feltiae and Heterorhabditis megidis.
(§3) The beneficial nematodes Hetorhabditis megidis and Steinernema feltiae were incubated with dilutions of actinidin, bromelain and pappain from papaya latex (see concentrations used in table 3). These nematodes reacted differentially to these cysteine proteinases (Tables 4 and 5). […] S. feltiae were dead at all concentrations of actinidin tested. […] After 16 hs of observation the enzyme solutions were diluted with water (to half of the initial concentrations) however, no change in nematode movement was observed after 24 hs.

[3] = tested on: Steinernema feltiae; test: In vitro effect on the beneficial nematode Steinernema feltiae; assay type: cell-based
Method: as §1, §2, §3

[4] = enzyme concentration A (Table 3): actinidin 3.3 mM, bromelain 2.2 mM, papain 250 uM
[5] = enzyme concentration B: actinidin 1.7 mM, bromelain 1.1 mM, papain 125 uM
[6] = enzyme concentration C: actinidin 840 uM, bromelain 560 uM, papain 62.5 uM

B1: actinidin (protein, UniProt P00785 127-380, looked up)
Actinidain: LPSYVDWRSAGAVVDIKSQGECGGCWAFSAIATVEGINKIVTGVLISLSEQELIDCGRTQNTRGCNVGYITDGFQFIINNGGINTEENYPYTAQDGECNVDLQNEKYVTIDTYENVPYNNEWALQTAVTYQPVSVALDAAGDAFKHYSSGIFIGPCGTAIDHAVTIVGYGTEGGIDYWIVKNSWDTTWGEEGYMRILRNVGGAGTCGIATMPSYPVKYNNQNHPKSYSSLINPPAFSMSNDGPVGVDDGQRYSA
notes: cysteine proteinase from kiwi fruit (Actinidia chinensis), Merops C01.007
[1]
  reduction of nematode infection of plants: 99%
[2]; [4]
  nematode motility or behaviour: All paralysed
[2]; [5]
  nematode motility or behaviour: All paralysed
[2]; [6]
  nematode motility or behaviour: All paralysed
[2]; higher concentrations
  effect on H. megidis: paralysed
[2]; lower concentrations
  effect on H. megidis: only affected slightly
[3]; all concentrations of actinidin tested
  state of S. feltiae: dead
[3]; [4]
  nematode motility or behaviour: All dead
[3]; [5]
  nematode motility or behaviour: All dead
[3]; [6]
  nematode motility or behaviour: All dead
[3]; enzyme concentration D: actinidin 420 uM, bromelain 280 uM, papain 31 uM
  nematode motility or behaviour: All dead
[3]; enzyme concentration E: actinidin 210 uM, bromelain 140 uM, papain 15 uM
  nematode motility or behaviour: All dead
[3]; enzyme concentration F: actinidin 105 uM, bromelain 70 uM, papain 7.5 uM
  nematode motility or behaviour: All dead
